The nature of assay [1]: Example 3: leptin effect on body weight in normal HSD versus DIO prone rats. It is filed as in vivo, rat. The conditions noted are these: FIG. 9. From the text: Normal, lean HSD rats were divided into two treatment groups. […] […] The DIO prone animals described herein appear resistant to the weight reducing effect of leptin.
Assay [2] is described as follows: Example 8: 24-week randomized, double-blind clinical study of pramlintide and metreleptin in overweight and obese subjects. The format is in vivo, human. The conditions noted are these: 4-week lead-in; all subjects received pramlintide 180 then 360 mcg BID; columns name the later randomization groups. Here is the method:
To evaluate inter alia the safety, tolerability and effect of the combination of an amylin agonist (pramlintide) and a leptin (metreleptin) on changes in body weight, a 24-week, randomized, double-blind, active-drug-controlled, multicenter study was conducted under USFDA approved protocols. Secondary objectives of the study were the determination of the pharmacokinetics of pramlintide and leptin, waist circumference, rate of change in body weight, and patient reported outcomes including for example without limitation perception of well-being related to weight change and mood. The study enrolled overweight and obese subjects with defined BMI ([…]), with enrollment statistics as provided in Table 2. […] Subjects treated with pramlintide/metreleptin lost an average of 25 pounds from the start of the 24-week study compared with an average of 17 pounds for subjects treated with pramlintide alone.
In an initial lead-in phase, all subjects received dietary instructions and treatment with pramlintide at 180 mcg BID for two weeks, followed by pramlintide at 360 mcg BID for two weeks. Subjects who completed the 4-week lead-in period and who lost 2-8 percent body weight during this period were eligible to continue the study. The term “enrolled” (Table 2) refers to subjects (N=177) receiving at least one dose of pramlintide during the lead-in period. […]

B1: murine leptin (protein, UniProt P41160 22-167, looked up)
Leptin: VPIQKVQDDTKTLIKTIVTRINDISHTQSVSAKQRVTGLDFIPGLHPILSLSKMDQTLAVYQQVLTSLPSQNVLQIANDLENLRDLLHLLAFSKSCSLPQTSGLQKPESLDGVLEASLYSTEVVALSRLQGSLQDILQQLDVSPEC
notes: murine leptin (Peprotech, catalog#450-31)
As for B1, in assay [1] (DIO prone rats, leptin dose printed 500 mg/kg/day), the “body weight, DIO prone animals” value is given as “ineffective”. In addition, in assay [1] (normal, lean HSD rats, leptin 500 μg/kg/day, 14 days), the “body weight, normal HSD rats” value is “significant and sustained reduction in body weight”. Moreover, in assay [2], the “Mean Change in Body Weight (kg) over lead-in period” value is -3.97 kg.

Source of the values: US20100323955A1, “METHODS FOR TREATING OBESITY AND OBESITY RELATED DISEASES AND DISORDERS” (AMYLIN PHARMACEUTICALS, INC., priority 2007, published 2010).
